Laboratory results taken from the Human Domainome abundance scans (Beltran et al. 2025).

B1: Storkhead-box protein 2, residues 64 to 141; numbered along this chain, Q9P2F5 (parent)
chain: SPISQSQFIPLGEILCLAISAMNSARKPVTQEALMEHLTTCFPGVPTPSQEILRHTLNTLVRERKIYPTPDGYFIVTP

Variants of: B1
Assay: abundance fitness (aPCA) (normalised: wild type 0, dead -1); higher = more abundant; growth selection in yeast, the domain comes from the species named
Details: Homo sapiens

Abundance fitness of substitutions, site by site:
S20: P -0.405 | A -0.104 | W -0.419 | D -0.116 | I -0.359 | M -0.115 | G -0.039 | E -0.022 | L -0.172 | Q 0.019 | H -0.219 | V -0.171 | R -0.025 | T -0.006 | K 0.018 | Y -0.181 | N 0.076
A18: Q -0.26 | N -0.376 | M -0.593 | K -0.282 | E -0.102 | T -0.099 | S -0.197 | C -0.001 | I -0.308 | D -1.1 | W -0.496 | H -0.125 | R -0.148 | P -0.887 | G -0.095 | V -0.163 | F -0.446
G12: C -0.135 | D -0.127 | V -0.452 | A -0.3
L15: N -0.613 | T 0.059 | G -1.06 | I -0.061 | A -0.034 | E -0.67 | Y -0.252 | K -0.572 | R -0.977 | M -0.049 | P -0.983 | H -0.796 | S -0.235 | V 0.039 | Q -1.03
R26: H -0.09 | E -0.016 | W -0.134 | M -0.124 | C -0.115 | I -0.199 | L -0.078 | F -0.089 | Q -0.018 | D -0.011 | V -0.09 | P -0.195 | G -0.009 | T -0.005 | S -0.04 | Y -0.248 | N 0.023 | A -0.021
A25: E -0.049 | N -0.068 | V -0.033 | W -0.189 | D 0.018 | L -0.026 | P -0.368 | Q -0.021 | I -0.053 | C -0.05 | S -0.055 | K -0.007 | G -0.175 | H -0.001 | R -0.066 | M -0.048 | F -0.08
L17: S 0.008 | C -0.116 | W -0.129 | M -0.041 | P -0.092 | A 0.005 | V -0.059 | D -0.069 | E 0.039 | H 0.034 | N 0.079 | T 0.043 | F -0.096 | I 0.133 | G -0.016
S24: W -0.226 | C -0.084 | P -0.34 | T 0.058 | M -0.125 | H -0.141 | K 0.037 | Y -0.093 | Q 0.026 | F -0.162 | A -0.002 | N 0.063 | V -0.007 | R -0.018 | L -0.078 | I 0.018 | D -0.018 | E 0.009
L11: E -0.325 | P -0.299 | C -0.62 | V -0.163 | K -0.51 | W -0.418 | H -0.051 | N -0.466 | Y -0.008 | D -0.316 | T -0.278 | Q -0.32 | G -0.277 | R -0.428 | F 0.054 | S -0.396 | I -0.096 | A -0.258
I14: W -0.105 | E -0.089 | P -0.032 | N -0.384 | S 0.01 | C -0.109 | L -0.035 | K -0.039 | D -0.258 | G -0.097 | F -0.228 | Y -0.108 | R -0.073 | M 0.024 | H 0.033 | Q -0.118 | A -0.003 | V -0.031 | T -0.034
C16: M -0.04 | I -0.01 | A -0.197 | F -0.074 | T -0.027 | G -0.249 | D -0.353 | R -0.061 | E -0.148 | L -0.019 | S -0.091 | P -0.124 | Y -0.021 | V -0.074 | N -0.08 | Q 0.072 | W -0.052 | K -0.155
I19: S -0.823 | T -0.224 | H -0.852 | V -0.154 | F -0.317 | P -0.948 | Y -1.26 | R -1.01 | W -0.825 | L -0.23 | G -1.07 | Q -1.15 | C -0.21 | A -0.341 | E -1
M22: V -0.354 | F -0.201 | C -0.114 | G -0.257 | I -0.128 | E -0.719 | Q -0.226 | L 0.015 | D -0.515 | R -0.205 | P -0.739 | Y -0.243 | H -0.226 | K -0.403 | T -0.616 | A -0.234 | S -0.306 | N -0.334 | W -0.336
I9: Q 0.101 | Y -0.082 | W -0.011 | V 0.011 | R 0.03 | N 0.131 | T 0.007 | P 0.046
P28: F -0.187 | W -0.214 | Y -0.032 | H -0.015 | S -0.087 | N -0.024 | I -0.091 | V -0.072 | L -0.2 | K -0.076 | T 0.009 | M -0.005 | Q 0.063 | A -0.016 | R -0.054 | G -0.133
A21: W -0.244 | P -0.774 | Y 0.056 | R -0.019 | H -0.181 | C -0.137 | M -0.235 | F -0.212 | N 0.235 | I -0.24 | T -0.086 | L -0.305 | K 0.051 | S 0.062 | D 0.002 | G -0.063 | V -0.167 | Q 0.002
V29: L -0.408 | T -0.162 | D -0.928 | W -0.363 | C 0.02 | M -0.278 | P -0.17 | G -0.417 | Q -0.386 | F -0.213 | H -0.496 | N -1.07 | R -0.792 | S -0.065
K27: G -0.132 | P -0.689 | A -0.077 | M -0.1 | N -0.156 | E -0.054 | D -0.235 | S -0.045 | H -0.119 | V -0.079 | F -0.182 | T 0.034 | I -0.072 | L -0.12 | W -0.184 | Q 0.064
P10: T -0.024 | H -0.101 | M 0.048 | L 0.085 | Y 0.003 | K 0.016 | R 0.089 | S -0.067 | V 0.171 | A -0.027 | W 0.175 | E -0.043 | D -0.135 | F -0.04 | C -0.136 | N 0.108 | I 0.302
E13: H -0.061 | D -0.001 | M -0.206 | S -0.039 | P -0.059 | K -0.039 | F -0.349 | R 0.078 | C -0.152 | G -0.009 | V -0.241 | T -0.016 | L -0.34 | N 0.02 | Q 0.021 | W -0.331
N23: R -0.156 | C -0.226 | L -0.354 | A -0.156 | S -0.12 | K -0.451 | V -0.143 | F -0.535 | G -0.126 | Y -0.357 | I -0.296 | D -0.061 | H -0.111 | M -0.211 | T -0.144 | W -0.31 | P -0.564 | Q -0.123 | E -0.108
